Data on one molecule can be found in patent US20210017289A1 (AbbVie / Abbott, published 2021).

In assay [1] the target is T1, recombinant soluble human OX40 ECD (residues 1-216) (human, UniProt P43489 29-216).
T1 construct: Purchased from Creative Biomart and further purified by gel filtration; also called recombinant extracellular domain of human OX40
T1 sequence: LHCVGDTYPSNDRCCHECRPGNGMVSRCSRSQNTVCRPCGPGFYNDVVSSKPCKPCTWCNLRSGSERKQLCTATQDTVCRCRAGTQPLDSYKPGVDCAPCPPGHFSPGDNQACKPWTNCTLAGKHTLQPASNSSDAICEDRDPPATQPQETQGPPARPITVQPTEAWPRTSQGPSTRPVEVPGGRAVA
Put plainly: SPR (Biacore T200, 25 °C), antibody captured by anti-Fc, OX40 ECD as analyte. The method, then: The binding kinetics of an anti-OX40 antibody to recombinant soluble OX40 ECD (extracellular domain) were determined by surface plasmon resonance-based measurements made on a Biacore T200 instrument (GE Healthcare) at 25° C. using an anti-Fc capture assay approach. Recombinant extracellular domains (ECDs) of human OX40 (residues 1-216) and rhesus macaque OX40 (residues 28-214) were purchased (Creative Biomart) and further purified by gel filtration using Superdex200 (GE Healthcare) in 10 mM 4-(2-hydroxyethyl)-1-piperazineethanesulfonic acid (HEPES), pH 7.4, 150 mM NaCl, 3 mM ethylenediaminetetraacetic acid (EDTA). Rhesus macaque (Macaca mulatta) OX40 is identical to cynomolgus monkey (Macaca fascicularis) OX40 (SEQ ID NO:2) at the amino acid level. Chip preparation and binding kinetic measurements were made in the assay buffer HBS-EP+(10 mM HEPES, pH 7.4, 150 mM NaCl, 3 mM EDTA, 0.05% Tween 20). For anti-Fc capture chip preparation, approximately 2000 Resonance Units (RU) of goat anti-human IgG Fc polyclonal antibody (Thermo Fisher Scientific Inc.), diluted to 25 μg/mL in 10 mM sodium acetate (pH 4.5), was directly immobilized across a CMS biosensor chip using a standard amine coupling kit according to manufacturer's instructions and procedures. Unreacted moieties on the biosensor surface were blocked with ethanolamine. For binding kinetics measurements each assay cycle consisted of the following steps: 1) capture of test anti-OX40 antibody on test surface only; 2) analyte injection (OX40 ECD or buffer only) over both reference and test surface, 240 μL at 80 μL/min, after which the dissociation was monitored for 900 seconds at 80 μL/min; 3) regeneration of capture surface by 10 mM Glycine-HCl, pH 1.5 injections over both reference and test surface. During the assay, all measurements were referenced against the capture surface alone (i.e., with no captured test antibody) and buffer-only injections were used for double referencing. OX40 injections ranged in concentration from 900 nM or 300 nM to 11.11 nM in a randomized 9- or 3-fold dilution series, respectively. Data were processed and fitted globally to a 1:1 binding model using Biacore T200 Evaluation software to determine the binding kinetic rate constants, kₐ (M⁻¹s⁻¹) and kd (s¹), and the equilibrium dissociation constant KD (M).
(In general: In SPR one partner is held on a chip, and binding of the other changes the refractive index at the surface.)

For assay [2], the target named is T2, human OX40 expressed on cells (human, UniProt P43489 29-277).
T2 sequence: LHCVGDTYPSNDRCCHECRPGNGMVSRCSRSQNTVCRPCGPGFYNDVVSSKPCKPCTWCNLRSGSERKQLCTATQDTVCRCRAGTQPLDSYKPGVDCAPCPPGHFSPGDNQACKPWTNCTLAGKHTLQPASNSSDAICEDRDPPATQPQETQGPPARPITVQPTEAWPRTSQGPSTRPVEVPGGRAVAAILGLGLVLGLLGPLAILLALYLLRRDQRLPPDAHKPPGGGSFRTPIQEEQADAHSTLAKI
Put plainly: cell-based or functional assay.

The target in another assay is T3, 293s-huOX40-muCRDIII.
T3 construct: cell-surface chimera, named on the sheet by its cell line; also called human OX40 chimera with murine CRDIII replacing human CRDIII
T3 receptor chain: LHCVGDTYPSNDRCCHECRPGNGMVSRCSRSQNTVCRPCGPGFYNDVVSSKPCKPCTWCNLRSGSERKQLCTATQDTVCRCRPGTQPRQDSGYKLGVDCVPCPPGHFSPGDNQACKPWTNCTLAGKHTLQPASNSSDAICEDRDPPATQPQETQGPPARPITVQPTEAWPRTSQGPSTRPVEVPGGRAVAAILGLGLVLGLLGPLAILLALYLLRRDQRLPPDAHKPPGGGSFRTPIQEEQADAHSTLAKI
The assay is described as follows: flow cytometry on 293s transfectants, Hu3738 added at 2 µg/mL, Cy5 donkey anti-human IgG. The method, then:
(§1) After plating cells, 50 μL of Hu3738 or isotype control antibody at 2 μg/mL were added to corresponding wells in duplicate for each cell line and allowed to incubate on ice for 30 minutes. Following incubation, 200 μL of Dulbecco's Phosphate Buffered Saline (DPBS) was added into each well and plates were spun down at 1000 rpm for three minutes. Supernatants from each well were removed and 50 μL of Cy5-Donkey anti-Human IgG (Jackson ImmunoResearch) secondary antibody was added at a 1:250 dilution, which was then incubated for 30 minutes on ice in the dark. Following the incubation period, 200 μL of DPBS was added prior to spinning down the plate at 1000 rpm for three minutes. Supernatants were removed and each well was re-suspended with 100 μL of DPBS+1% Formaldehyde. Samples were analyzed on the dual laser FACSCalibur flow cytometer (Becton Dickinson).
(In general: A flow cytometer gives signals particle by particle.)

The next assay addresses T4, 293s-huOX40-muCRDI.
T4 construct: cell-surface chimera, named on the sheet by its cell line; also called human OX40 chimera with murine CRDI replacing human CRDI
T4 receptor chain: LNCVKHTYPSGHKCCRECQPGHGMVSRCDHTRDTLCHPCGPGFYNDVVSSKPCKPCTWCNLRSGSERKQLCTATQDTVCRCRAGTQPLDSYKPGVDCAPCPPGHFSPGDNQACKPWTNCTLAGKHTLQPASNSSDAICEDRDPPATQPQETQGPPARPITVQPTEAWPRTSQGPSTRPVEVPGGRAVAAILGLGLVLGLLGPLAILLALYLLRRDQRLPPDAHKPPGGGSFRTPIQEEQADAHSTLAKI
The assay is described as above. As for the experimental part:
as §1

B1: Hu3738 (antibody, V domains shown)
VH: EVQLVESGGGLVQPGGSLRLSCAASGFTFSRYGMSWVRQAPGKGLELVATINSNGGRTYYPDSVKGRFTISRDNAKNSLYLQMNSLRAEDTAVYYCAREGITTAYAMDYWGQGTTVTVSS
VL: DIVMTQSPDSLAVSLGERATINCKASQSVDYDGDSYMHWYQQKPGQPPKLLIYAASILESGVPDRFSGSGSGTDFTLTISSLQAEDVAVYYCQQSNEDPRTFGGGTKVEIKR
notes: Humanized antibody; also called exemplary anti-OX40 antibody Hu3738; Hu3738 VH.1b / Hu3738 VL.1
A word on the Kd: it is the free concentration of one partner at which half of the binding sites on the other are occupied at equilibrium, for simple one-to-one binding. Broadly, the koff is the rate constant with which the complex falls apart. As to B1, in assay [1], the Kd came to 42 nM and the koff is 0.042 s⁻¹. Besides, in assay [2], the “EC50 With Cross-linker (nM), NF-κB signaling” value was 0.02 nM and the “EC50 Without Cross-linker (nM), NF-κB signaling” value stood at 22 nM. For the same molecule, in the assay with 293s-huOX40-muCRDIII, the binding result is “binds”. The binding result in the assay with 293s-huOX40-muCRDI was “binds”.
